Results: US20200392228A1 (PANDION OPERATIONS, published 2020)
Substitutions are numbered along the chain they refer to.

T1: mouse MAdCAM expressed on cells (mouse, UniProt Q61826 22-405)
T1 construct: whole, on cells
T1 sequence (looked up): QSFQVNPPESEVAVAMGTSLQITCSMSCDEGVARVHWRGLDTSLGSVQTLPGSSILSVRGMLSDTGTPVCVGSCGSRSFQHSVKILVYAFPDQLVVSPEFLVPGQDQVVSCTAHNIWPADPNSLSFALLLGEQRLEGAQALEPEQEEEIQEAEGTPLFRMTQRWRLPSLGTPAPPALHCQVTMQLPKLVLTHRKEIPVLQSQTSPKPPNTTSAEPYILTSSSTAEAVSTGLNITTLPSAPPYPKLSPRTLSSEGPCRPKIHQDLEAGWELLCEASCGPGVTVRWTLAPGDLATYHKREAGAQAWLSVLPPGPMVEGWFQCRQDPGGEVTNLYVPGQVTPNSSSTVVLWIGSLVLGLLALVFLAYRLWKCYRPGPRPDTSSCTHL

T2: human MAdCAM expressed on cells (human, UniProt Q13477 19-382)
T2 construct: whole, on cells; also called MADCAM1
T2 sequence (looked up): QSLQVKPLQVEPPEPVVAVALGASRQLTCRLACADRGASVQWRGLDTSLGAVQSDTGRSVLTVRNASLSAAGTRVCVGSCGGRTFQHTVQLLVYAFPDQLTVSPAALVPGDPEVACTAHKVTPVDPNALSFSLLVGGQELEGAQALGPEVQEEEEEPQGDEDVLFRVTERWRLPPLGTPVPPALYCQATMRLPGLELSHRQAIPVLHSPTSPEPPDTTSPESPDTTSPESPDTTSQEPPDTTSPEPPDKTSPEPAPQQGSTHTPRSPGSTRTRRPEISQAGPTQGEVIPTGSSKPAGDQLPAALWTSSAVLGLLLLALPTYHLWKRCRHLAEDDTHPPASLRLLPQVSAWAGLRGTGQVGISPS

B1: MAdCAM antibody Clone ID 13 of Table 6 (scFv) (scFv)
scFv: EVQLLESGGGLVQPGGSLRLSCAASGFTFDDYAMHWVRQAPGKGLEWVSYIDASGTTIYYADSVKGRFTISRDNSKNTLYLQMNSLRAEDTAVYYCAKDQAAAGYWYFDLWGRGTLVTVSSGGGGSGGGGSGGGGSGGGGSDIQMTQSPSSLSASVGDRVTITCQASQDISNYLNWYQQKPGKAPKLLIYKASTLESGVPSRFSGSGSGTDFTLTISSLQPEDFATYYCQQSYSTPITFGQGTRLEIK
B2: MAdCAM antibody Clone ID 58 of Table 6 (scFv) (scFv)
scFv: QVQLVQSGAEVKKPGASVKVSCKASGYTFTGYYMHWVRQAPGQGLEWMGIINPSGGNTKYAQKFQGRVTMTRDTSTSTVYMELSSLRSEDTAVYYCTTADYYYYMDVWGKGTTVTVSSGGGGSGGGGSGGGGSGGGGSDIQMTQSPSSLSASVGDRVTITCRASQGISNYLAWYQQKPGKAPKLLIYAASSLQSGVPSRFSGSGSGTDFTLTISSLQPEDFATYYCQQYYSNADFGQGTKVEIK
B3: MAdCAM antibody Clone ID 8 of Table 6 (scFv) (scFv)
scFv: EVQLLESGGGLVQPGGSLRLSCAASGFMFGDYAMHWVRQAPGKGLEWVSAISGSGGSTYYADSVKGRFTISRDNSKNTLYLQMNSLRAEDTAVYYCAKDLVVAGIWYFDLWGRGTLVTVSSGGGGSGGGGSGGGGSGGGGSDIQMTQSPSSLSASVGDRVTITCRASQGISNNLNWYQQKPGKAPKLLIYDASSLESGVPSRFSGSGSGTDFTLTISSLQPEDFATYYCQQTHSFPSTFGQGTKLEIK
B4: MAdCAM antibody Clone ID 51 of Table 6 (scFv) (scFv)
scFv: EVQLLESGGGLVQPGGSLRLSCAASGFTFNNYGMNWVRQAPGKGLEWVSRINSDGSSTSYADSVKGRFTISRDNSKNTLYLQMNSLRAEDTAVYYCARGAYYYYYMDVWGQGTLVTVSSGGGGSGGGGSGGGGSGGGGSEIVMTQSPATLSVSPGERATLSCRASQSVSGSYLAWYQQKPGQAPRLLIYATSSRASGIPARFSGSGSGTEFTLTISSLQSEDFAVYYCQQYYSGLTFGQGTKVEIK
B5: MAdCAM antibody Clone ID 11 of Table 6 (scFv) (scFv)
scFv: QVQLVQSGAEVKKPGASVKVSCKASGYTFTTYYMHWVRQAPGQGLEWMGGFDPEDGETIYAQKFQGRVTMTRDTSTSTVYMELSSLRSEDTAVYYCARHAVAGAVGAGYYYYGMDVWGQGTMVTVSSGGGGSGGGGSGGGGSGGGGSDIQMTQSPSSLSASVGDRVTITCRASESISNWLAWYQQKPGKAPKLLIYAASTLQSGVPSRFSGSGSGTDFTLTISSLQPEDFATYYCQQSYSVPFTFGPGTKVDIK
B6: MAdCAM antibody Clone ID 52 of Table 6 (scFv) (scFv)
scFv: EVQLLESGGGLVQPGGSLRLSCAASGFTFSNSDMNWVRQAPGKGLEWVAHIWNDGSQKYYADSVKGRFTISRDNSKNTLYLQMNSLRAEDTAVYYCARDRTDPGYSSAMDVWGQGTTVTVSSGGGGSGGGGSGGGGSGGGGSDIQMTQSPSSLSASVGDRVTITCRASQDIRNYLGWYQQKPGKAPKLLIYDASSLETGVPSRFSGSGSGTDFTLTISSLQPEDFATYYCQQATSLPLTFGGGTKVEIK
B7: MAdCAM antibody Clone ID 53 of Table 6 (scFv) (scFv)
scFv: QVQLVQSGAEVKKPGASVKVSCKASGYTFTSYDINWVRQAPGQGLEWMGWMNPNSGNTGYAQKFQGRVTMTRDTSTSTVYMELSSLRSEDTAVYYCAKDSDYSNLLWDYWGQGTLVTVSSGGGGSGGGGSGGGGSGGGGSDIQMTQSPSSLSASVGDRVTITCRASQDITNDLGWYQQKPGKAPKLLIYQASSLESGVPSRFSGSGSGTDFTLTISSLQPEDFATYYCQQSYTIPLTFGQGTKVEIK
B8: MAdCAM antibody Clone ID 57 of Table 6 (scFv) (scFv)
scFv: QVQLVQSGAEVKKPGASVKVSCKASGYTFTSYYMHWVRQAPGQGLEWMGIINPSGGSTSYAQKFQGRVTMTRDTSTSTVYMELSSLRSEDTAVYYCARDSVAGTGGRYYGMDVWGQGTLVTVSSGGGGSGGGGSGGGGSGGGGSDIQMTQSPSSLSASVGDRVTITCRASQGISNYFAWYQQKPGKAPKLLIYAASSLQGGVPSRFSGSGSGTDFTLTISSLQPEDFATYYCQQSYSLPYTFGQGTKLEIK
B9: MAdCAM antibody Clone ID 55 of Table 6 (scFv) (scFv)
scFv: QVQLVQSGAEVKKPGASVKVSCKASGYTFTSYYMHWVRQAPGQGLEWMGIIDPSGGSTSYAQKFQGRVTMTRDTSTSTVYMELSSLRSEDTAVYYCAREEWSSGGVGYFDYWGQGTLVTVSSGGGGSGGGGSGGGGSGGGGSDIQMTQSPSSLSASVGDRVTITCRASQGISSYLAWYQQKPGKAPKLLIYATSSLQTGVPSRFSGSGSGTDFTLTISSLQPEDFATYYCQQTYSIPITFGQGTRLEIK
B10: MAdCAM antibody Clone ID 10 of Table 6 (scFv) (scFv)
scFv: QVQLVQSGAEVKKPGASVKVSCKASGYTLTTWYMYWVRQAPGQGLEWMGWINPNRGATNYAQKFQGRVTMTRDTSTSTVYMELSSLRSEDTAVYYCAKGDLWGAMDVWGQGTLVTVSSGGGGSGGGGSGGGGSGGGGSDIQMTQSPSSLSASVGDRVTITCRASDNIGSWLAWYQQKPGKAPKLLIYAASSLQSGVPSRFSGSGSGTDFTLTISSLQPEDFATYYCQQGYSTPPTFGQGTKVEIK
B11: MAdCAM antibody Clone ID 26 of Table 6 (scFv) (scFv)
scFv: B10 scFv with L113T
B12: MAdCAM antibody Clone ID 49 of Table 6 (scFv) (scFv)
scFv: QVQLVQSGAEVKKPGASVKVSCKASGDTFTGYYIHWVRQAPGQGLEWMGWINPNSGGTNYAQKFQGRVTMTRDTSTSTVYMELSSLRSEDTAVYYCARSGLWLGSYYGMDVWGQGTLVTVSSGGGGSGGGGSGGGGSGGGGSDIQMTQSPSSLSASVGDRVTITCRASQTISIWLAWYQQKPGKAPKLLIYDASTLQSGVPSRFSGSGSGTDFTLTISSLQPEDFATYYCQQYSSYPLTFGQGTKVEIK
B13: MAdCAM antibody Clone ID 50 of Table 6 (scFv) (scFv)
scFv: QVQLVQSGAEVKKPGASVKVSCKASGYTFTSYDINWVRQAPGQGLEWMGWINPNSGTTGYAQKFQGRVTMTRDTSTSTVYMELSSLRSEDTAVYYCARSPYYYYGMDVWGQGTTVTVSSGGGGSGGGGSGGGGSGGGGSDIQMTQSPSSLSASVGDRVTITCRASHFISRWVAWYQQKPGKAPKLLIYAASTLQSGVPSRFSGSGSGTDFTLTISSLQPEDFATYYCQQSYSGISFGPGTKVDIK
B14: MAdCAM antibody Clone ID 54 of Table 6 (scFv) (scFv)
scFv: EVQLLESGGGLVQPGGSLRLSCAASGFTFGDYAMSWVRQAPGKGLEWVAVVSYDGTNKYYADSVKGRFTISRDNSKNTLYLQMNSLRAEDTAVYYCAKDICSSTSCYFDLWGRGTLVTVSSGGGGSGGGGSGGGGSGGGGSDIQMTQSPSSLSASVGDRVTITCRASQNINNYVNWYQQKPGKAPKLLIYDASNLETGVPSRFSGSGSGTDFTLTISSLQPEDFATYYCQQANSFPPTFGQGTRLEIK

The binders below were run against T1, mouse MAdCAM expressed on cells (assay: cell binding).

| binding result | Binder |
| --- | --- |
| no binding | B1 |
| no binding | B2 |
| no binding | B3 |
| no binding | B4 |
| no binding | B5 |
| no binding | B6 |
| no binding | B7 |
| no binding | B8 |
| no binding | B9 |
| no binding | B10 |
| no binding | B11 |
| no binding | B12 |
| no binding | B13 |
| no binding | B14 |

The binders below were run against T2, human MAdCAM expressed on cells (assay: cell binding).

| binding result | Binder |
| --- | --- |
| binds | B1 |
| binds | B2 |
| binds | B3 |
| binds | B4 |
| binds | B5 |
| binds | B6 |
| binds | B7 |
| binds | B8 |
| binds | B9 |
| binds | B10 |
| binds | B11 |
| binds | B12 |
| binds | B13 |
| binds | B14 |
